Reference: the DeepSol protein solubility set

experiment: soluble on expression in E. coli; label from the status in PepcDB or PDB records

Row | Sequence | soluble on expression in E. coli
1 | MGSDKIHHHHHHMEKKVICQDIFWSCDGTSFVSVHNDFGIRQYLVPEESNTDKLNRNLLLPFTRFFRNQSIVSCAIDPFYTLYNENSDRLAGDRIVVGGKNFPLQLYSLMDGQCILSYDTMNKINGEYETVYSVKIDVESRVYTGSCRNKVAIYDKSRRDAVWMNQSTKKASKGRQSIISCFEEQPMGGQALSRGSLLCGSYANEMFQVDCRHQRLERLNYTRTVAGGIVQILTSDNGRYVYVVRRNSDAISIYDRRNLQHELNVLRLPFRIHHNSAKLKAYIDTAYGLSMGTPQGTILNWGRDLVEFGGVPSHNSVEDPLITSIPPESEWRTNLDSTIPATVVKNCPGDPELFALSHGGTISLCRFGG | not soluble
2 | MLRIVLARSSRAMSSASPASASDSDTSVRKIGKALETYLKHSQQHVAMMEKHRAEFETGRRHLAKMMSLDIHELDQEAIDRAILYLFPSGLTDPNARPVMRPPDEILPKFQRFTFDEEGKPEGSRFFTLSPKIYGLLSDIGVKTHSVMKFYDEHVGSRSVNRSDLEPANLSGSQWVTADKLKKKLSEKFSKELYGQVIIAFEHLASLPGSAIEQKFLMEFREPMTASTGSKLFGPAIPEVHVCAVTNRRYAEVTTRCKDTRATVKVTDAGKGKFDIDGLQLHDFRHLQAREILLAPMIVSQSLGRFDVTATTSCISNTLPEAPNKAPLMRSGGMSALPRAVRHGTALCVAALQPEAIEPLRLSGLLTLDPRKNERSKVNQPGARAKWIWKRR | not soluble
3 | MIRFEIHGDNLTITDAIRNYIEEKVGKLERYFNNVPNAVAHVRVKTYSNSTTKIEVTIPLKDVTLRAEERHDDLYAGIDLITNKLERQVRKYKTRVNRKHRDRGDQDIFVAEVQESTTNNHADDIESENDIEIIRSKQFSLKPMDSEEAVLQMNLLGHDFFIFTDRETDGTSIVYRRKDGKYGLIETTELEHHHHHH | soluble
4 | MGSDKIHHHHHHMKRIVCPKDYYNEQGLLLSAKGTKITLSQFLRLQRKYDFLSETEANERTLASYEKIKQKICRKDERYKRADDQLLDQASALLVNIVFESKRKPWYMYLTALGNHINWLYTHSIDVALLSLMMAIESGVSQRSLWDLGVGGILHDVGKLLIPKKIIQKRTELSDIEKDILRQHCELGVECTTDCAFPILSQDIIAQHHERLDGSGYPNQLQEGQINEYVKIVMIADAFDTITAGRPYRKTVEVEEALAYLEDQEGAFSRMYLETLKNILVRP | not soluble
5 | MGSDKIHHHHHHMDLRQIKTFVVVAEELHFGRAAARLQIAQPAVTAQIQALERQLGVPLLIRSTRRVQLTEAGMIFNSRCIDILRDIDRTCLATQAVAGKDLHQITIGTIYPATFGVLPNFVSRINQRFPEARIHIHNGNTVGIVREIERGNINLGFIRPVENIGSLRWQSIHREKYLLAIARENPLSSKSTVTPDDLRKQKIIAFSRAYNSQTDDNFPEEFKKYDLNQQVVYSCNDTQAMLAMITAGIGVGFVPEWVKSIPGQNFELREVEGLERHIGLGLAWSVDDPTVNRDSIIELCRTLIGSEVDWPR | not soluble
6 | DWEVETGERYLPKLPECKIDNSKYQHPIQVVPSGPGMPEYLIYQVLTLAINQANRSVRITTPYFVPNTDLLETLKMTAQRGIDVELIIPHKNDSLMVQWASRAFYSELLAAGVKIYEFYGGLLHTKSVVIDDQFCLVGTVNMDMRSLWLNFEVTLAVDDEEFTKQLSWLQDGYIKQSHPVVLDEWEKRSLYSRFLERVFYLFNPLL | not soluble
7 | MAYPGHPGAGGGYYPGGYGGAPGGPAFPGQTQDPLYGYFAAVAGQDGQIDADELQRCLTQSGIAGGYKPFNLETCRLMVSMLDRDMSGTMGFNEFKELWAVLNGWRQHFISLDTDRSGTVDPQELQKALTTMGFRLSPQAVNSIAKRYSTNGKITFDDYIACCVKLRALTDSFRRRDTAQQGVVNFPYDDFIQCVMSV | soluble
8 | MQQQCDTVSAWQSLRGPGTGGYYLFKTTEGGKTDCTYVKGSNFNDAAQTATYTYGNMGSGNQMTQQTASASISGNAIVVGTDHSEVMYSDGSTCDVVRLNGQIELWIHSSATSNTGNLNSCCTDKFNQEKGSRPEHVVYRSTCPNMPQ | soluble
9 | MRVRSETVNKPQSLRHALNKAVPYVRNNPDKLHLFVDNGSLVATGASSMSWEYRYTLNAVIEDFSGDQNLLMAPVLLWLRDNQPDAINNPALREKLFTFEVDILRNDVCDISLNLQLTERVLVSTDGSVSSVEAVAEPDEPEEMWTVKRG | not soluble
10 | MRVKTGVVRRRRHKKVLKLARGFYSGRRKHFRKAKEQLERSMYYAFRDRKQKKREFRSLWVVRINAACRMHNTSYSRFMHALKVANIELDRKVLADMAMNDMQAFTSVLESVKEHLLEHHHHHH | soluble
